In patent US11279941B2, “Method for introducing protein into plant cell” (RIKEN, priority 2016, dated 2022):

B1: ADH-RhB: alcohol dehydrogenase (150 kDa) labeled with rhodamine B isothiocyanate, 6 RhB molecules per ADH (conjugate)
chain: SIPETQKGVIFYESHGKLEYKDIPVPKPKANELLINVKYSGVCHTDLHAWHGDWPLPVKLPLVGGHEGAGVVVGMGENVKGWKIGDYAGIKWLNGSCMACEYCELGNESNCPHADLSGYTHDGSFQQYATADAVQAAHIPQGTDLAQVAPILCAGITVYKALKSANLMAGHWVAISGAAGGLGSLAVQYAKAMGYRVLGIDGGEGKEELFRSIGGEVFIDFTKEKDIVGAVLKATDGGAHGVINVSVSEAAIEASTRYVRANGTTVLVGMPAGAKCCSDVFNQVVKSISIVGSYVGNRADTREALDFFARGLVKSPIKVVGLSTLPEIYEKMEKGQIVGRYVVDTSK

Tests used:
[1] = Hydrodynamic diameter and PDI by dynamic light scattering (DLS); assay type: physicochemical; settings: protein not forming the complex (no carrier peptide)
Experimental: (§1) A solution of 1.0 g/l of the peptide ((BP100)2K or BP100(KH)9) was mixed with 2 μg of the protein (the BSA-RhB conjugate) at various peptide/protein molar ratios (1, 5, 10, and 25) at 25° C. for about 5 minutes to prepare carrier peptide/protein complexes, and the resultants were diluted to the final volume of 100 μl with autoclaved ultrapure water (MilliQ water). Thereafter, 10 µl of the solution was taken and further diluted to the final volume of 100 μl. The average hydrodynamic diameter of the complexes was measured via dynamic light scattering (DLS) using Zetasizer Nano-ZS (Malvern Instruments, Ltd., Worcestershire, U.K.). Polydispersion indexes (PDI) were determined with the zeta nanosizer (Zetasizer software ver 6.20) using He—Ne laser (633 nm) at 25° C. and a backscattering detection angle of 173°. Thereafter, the sample was further diluted to the total volume of 750 μl with autoclaved ultrapure water (MilliQ water), and the zeta potential was analyzed via laser Doppler microelectrophoresis using Zetasizer Nano-ZS. The zeta potential and zeta shift of the samples were measured three times and the average was determined with Zetasizer software ver 6.20.

[2] = Zeta potential by laser Doppler microelectrophoresis; assay type: physicochemical; settings: protein not forming the complex (no carrier peptide)
Experimental: as §1

[3] = tested on: YFP-expressing Arabidopsis thaliana leaf; test: Quantification of peptide delivery efficiency (protein extracted from contacted leaf, PAGE fluorescence); assay type: in vivo; settings: 6 hours after contact; for peptide/protein molar ratio at which the amount of the collected protein was the greatest: BSA-RhB
Experimental: (§2) About 100 μl of the solution of the carrier peptide/protein complex (the (BP100)2K/BSA-RhB or BP100(KH)9/BSA-RhB complex) prepared in Example 1 was brought into direct contact with an YFP-expressing Arabidopsis thaliana leaf at various peptide/protein molar ratios (1, 5, 10, and 25) with a needleless syringe. Also, about […] of the solution of the carrier peptide/protein complex (the (BP100)2Ks/ADH-RhB complex) prepared in Example 1 was brought into direct contact with an YFP-expressing Arabidopsis thaliana leaf at the peptide/protein molar ratio of 10.
A transgenic YFP-expressing Arabidopsis thaliana leaf was collected 6 hours after bringing it into contact with the (BP100)2K8/BSA-RhB or BP100(KH)9/BSA-RhB complex, and the leaf was washed 2 times with PBS (D-PBS(−), Wako Pure Chemical Industries Ltd., Osaka, Japan) to remove excess BSA-RhB on the leaf surface. Total crude protein extracted from the contacted leaf with 1× lysis buffer (Promega, Madison, U.S.A.) was subjected to 4 to 15% tris-glycine-sodium dodecyl sulfate (SDS)-polyacrylamide gel electrophoresis (PAGE) (Bio-rad, California, U.S.A.) at a constant voltage of 100 V. Thereafter, the BSA-RhB fluorescence was detected at the excitation light of 520 nm and the emission light of 605 nm with the Luminoimage analyzer (LAS-3000, Fujifilm Corporation, Tokyo, Japan). After detecting the fluorescence, the gel was stained with Coomassie blue G250 (Bio-rad, California, U.S.A.) to detect the Rubisco large subunit. The BSA-RhB fluorescence band density and the Coomassie blue-stained rbcL band density were quantified using Image J64 (NIH, Bethesda, Md.), and the BSA-RhB band density was normalized against the rbcL band density. SDS-PAGE was performed again based on the normalized data. The volume of the subjected crude protein in each sample was adjusted, in such a manner that the band density of Coomassie blue-stained rbcL bands would be equivalent to each other among all the tested samples, so as to attain the BSA-RhB band having the normalized fluorescence intensity. […] The total amount of the BSA-RhB protein collected from the contacted leaf was calculated in accordance with the formulae below.
The total amount (μg) of the BSA-RhB protein extracted per contacted leaf=(the amount (μg) of the protein corresponding to the RhB intensity measured per lane of the gel/the volume (μl) of the subjected crude protein per lane of the gel)×the total volume (l) of the extracted crude protein. […]
The obtained data are shown as the mean the standard deviation (SD) of the three tests. […] A statistic difference was determined at a statistic significance of p<0.05 via analysis of variance (ANOVA) and the Tukey's honestly significant difference (HSD) test.

[4] = tested on: YFP-expressing Arabidopsis thaliana leaf; test: Incorporation of carrier peptide/protein complex into cells (CLSM); assay type: in vivo; settings: ADH-RhB alone, absence of carrier peptide, data not shown
Experimental: as §2
Incorporation of proteins into cells was quantitatively assayed using a confocal laser scanning microscope (CLSM, Carl Zeiss, Oberkochen, Germany). Intracellular delivery of the peptide/BSA-RhB complex or the peptide/ADH-RhB complex to an YFP-expressing Arabidopsis thaliana leaf was observed by detecting the YFP fluorescence at the excitation light of 488 nm and detecting the RhB fluorescence at the excitation light of 555 nm.

Molecule | Hydrodynamic diameter [1] [nm] | Zeta potential [2] [mV] | BSA-RhB extracted from the leaf ([3]; with or without carrier peptide) | peptide/protein molar ratio at which the amount of the collected protein was the greatest [3] | protein delivery capacity (BSA-RhB extracted from leaf) ([3]; all peptide/protein molar ratios (1-25)) | ADH-RhB signal in leaf [4]
BSA-RhB: bovine serum albumin labeled with rhodamine B isothiocyanate, 4 RhB molecules per BSA [reference compound] | 92±2 | −35.3±1.5 | extracted from the leaf only when the carrier peptide was used | – | – | –
KKLFKKILKYLKHKHKHKHKHKHKHKHKH (SEQ ID NO: 24) [BP100(KH)9, carrier peptide] | – | – | – | 5 | – | –
KKLFKKILKYLKKLFKKILKYLKKKKKKKK (SEQ ID NO: 23) [(BP100)2K8, carrier peptide, fusion of BP100 and oligolysine] | – | – | – | 10 | superior to that of the BP100(KH)9 fusion peptide | –
B1 | 168±7 | −43.1±1.1 | – | – | – | not detected
